From US20100298227A1 (published 2010)

B1: bacterial superantigen SEB (other)
chain: ESQPDPKPDELHKSSKFTGLMENMKVLYDDNHVSAINVKSIDQFLYFDLIYSIKDTKLGNYDNVRVEFKNKDLADKYKDKYVDVFGANYYYQCYFSKKTNDINSHQTDKRKTCMYGGVTEHNGNQLDKYRSITVRVFEDGKNLLSFDVQTNKKKVTAQELDYLTRHYLVKNKKLYEFNNSPYETGYIKFIENENSFWYDMMPAPGDKFDQSKYLMMYNDNKMVDSKDVKIEVYLTTKKK
B2: bacterial superantigen SEA (other)
chain: SEKSEEINEKDLRKKSELQGTALGNLKQIYYYNEKAKTENKESHDQFLQHTILFKGFFTDHSWYNDLLVDFDSKDIVDKYKGKKVDLYGAYYGYQCAGGTPNKTACMYGGVTLHDNNRLTEEKKVPINLWLDGKQNTVPLETVKTNKKNVTVQELDLQARRYLQEKYNLYNSDVFDGKVQRGLIVFHTSTEPSVNYDLFGAQGQYSNTLLRIYRDNKTINSENMHIDIYLYTS
B3: bacterial superantigen TSST-1 (other)
chain: STNDNIKDLLDWYSSGSDTFTNSEVLDNSLGSMRIKNTDGSISLIIFPSPYYSPAFTKGEKVDLNTKRTKKSQHTSEGTYIHFQISGVTNTEKLPTPIELPLKVKVHGKDSPLKYGPKFDKKQLAISTLDFEIRHQLTQIHGLYRSSDKTGGYWKITMNDGSTYQSDLSKKFEYNTEKPPINIDEIKTIEAEIN

Target: Detergent-soluble HLA-DR4 purified from Priess cells (DRB1*0401) (human)
Test: competition with biotinylated TAL for purified HLA-DR; competitor TAL

Q: With B1 as the molecule, how does the “fold amount of superantigen needed to inhibit TAL binding” value (from here on “fold amount … to inhibit TAL binding”) read?
A: 50 fold

Q: How did the “fold amount … to inhibit TAL binding” value turn out when B2 was run?
A: 50 fold

Q: With B3 as the molecule, how does the “fold amount … to inhibit TAL binding” value read?
A: 50 fold

Target: Detergent-soluble HLA-DR1 purified from LG-2 cells (DRB1*0101) (human)
Test: as above

Q: Which “fold amount … to inhibit TAL binding” value does the source give for B1 here?
A: 50 fold

Q: Which “fold amount … to inhibit TAL binding” value does the source give for B2 here?
A: 50 fold

Q: With B3 as the molecule, how does the “fold amount … to inhibit TAL binding” value read?
A: 50 fold

Target: Detergent-soluble HLA-DR2 purified from MGAR cells (DRB1*1501) (human)
Test: as above

Q: For B1, which “fold amount … to inhibit TAL binding” value is on record?
A: 50 fold

Q: How did the “fold amount … to inhibit TAL binding” value turn out when B2 was run?
A: 50 fold

Q: With B3 as the molecule, how does the “fold amount … to inhibit TAL binding” value read?
A: 50 fold

Target: Detergent-soluble HLA-DR1 purified from LG-2 cells (DRB1*0101) (human)
Test: not given

Q: For Copolymer 1, which IC50 is on record?
A: 8.8 µM

Q: And the Kd?
A: 0.074 µM

Q: Which IC50 does the source give for “GAL terpolymer (SD-1689), poly[L-Glu 0.153, L-Ala 0.479, L-Lys 0.365]” here?
A: < 1000 µM

Q: “GTL terpolymer (SD-1697), poly[L-Tyr 0.162, L-Glu 0.259, L-Lys 0.579]” was tested. Which IC50 did it give?
A: 43 µM

Q: And the Kd?
A: 0.004 µM

Q: How did the IC50 turn out when “TAL terpolymer (SD-1691), poly[L-Tyr 0.102, L-Ala 0.542, L-Lys 0.353]” was run?
A: 3.3 µM

Q: Which results are given for “TGA terpolymer (SD-1690), poly[L-Tyr 0.136, L-Glu 0.21, L-Ala 0.648]”?
A: IC50: 1.3 µM; Kd: 0.01 µM

Target: Detergent-soluble HLA-DR2 purified from MGAR cells (DRB1*1501) (human)
Test: not given

Q: Which IC50 does the source give for Copolymer 1 here?
A: 10.1 µM

Q: And the Kd?
A: 0.082 µM

Q: For “GAL terpolymer (SD-1689), poly[L-Glu 0.153, L-Ala 0.479, L-Lys 0.365]”, which IC50 is on record?
A: < 1000 µM

Q: What about the Kd of the same molecule?
A: 0.017 µM

Q: For “GTL terpolymer (SD-1697), poly[L-Tyr 0.162, L-Glu 0.259, L-Lys 0.579]”, which IC50 is on record?
A: 25.4 µM

Q: What does the source list for “TAL terpolymer (SD-1691), poly[L-Tyr 0.102, L-Ala 0.542, L-Lys 0.353]”?
A: IC50: 2.7 µM; Kd: 0.017 µM

Q: Which results are given for “TGA terpolymer (SD-1690), poly[L-Tyr 0.136, L-Glu 0.21, L-Ala 0.648]”?
A: IC50: 9.5 µM; Kd: 0.008 µM

Target: Detergent-soluble HLA-DR4 purified from Priess cells (DRB1*0401) (human)
Test: not given

Q: Copolymer 1 was tested. Which IC50 did it give?
A: 10.8 µM

Q: And the Kd?
A: 0.015 µM

Q: Which results are given for “GAL terpolymer (SD-1689), poly[L-Glu 0.153, L-Ala 0.479, L-Lys 0.365]”?
A: IC50: < 1000 µM; Kd: 0.003 µM

Q: What does the source list for “GTL terpolymer (SD-1697), poly[L-Tyr 0.162, L-Glu 0.259, L-Lys 0.579]”?
A: IC50: 43 µM; Kd: 0.008 µM

Q: Which IC50 does the source give for “TGA terpolymer (SD-1690), poly[L-Tyr 0.136, L-Glu 0.21, L-Ala 0.648]” here?
A: 1 µM

Q: And the Kd?
A: 0.008 µM
